# According to article PMC6336196 (Nature, 2018):
# Read-outs that look alike come from different tables or passages of the source.
# B1: Danio rerio (zebrafish) mitochondrial calcium uniporter (natural protein, zebrafish (Danio rerio), UniProt Q08BI9 35-376, looked up)
# chain: QGTKTEALSMSLGGHQTVRRAHGLRTGGRCALFCHPSATLTAQGWKGSPSWQVQRLLCSPAAEDVSVVYQNGLPVISVRLPSRRERCQFTLKPLSDTVGVFLQQLQAEDRGIDRVTIYSADGARIASSTGIDILLMDNFKLVINDTSYLVQPPRRDLLPHEDGERLNDVKILVQQLYTTLRIEEHQLNKERELIGRLEDLNSQLQPLEKVKEELSKKAERRTTWVLWGGMAYMATQFGILARLTWWEYSWDIMEPVTYFITYGTAMAMYAYFVLTRQEYLYPDARDRQYLLFFHRGAKRTRFDIEKYNKLKDAIAEAELDLKRLRDPLQLNLPIQQIDTSKD
# B2: Cyphellophora europaea mitochondrial calcium uniporter (natural protein, UniProt W2SDE2 1-346, looked up)
# chain: MTKGKLLTTPSRLLKLVLPLSTVDHNTDRKDVAPLALLVHPQQPLSYLERLIQAELPPPDPQDSKSTTRSVTFRAMEAKDDEIKPRKKADTEGGGGSDGSVQSYSGAGREGEGKDEGEFVRWSPSTEIGDFIRDAARAKEFEVEIEGSPGVIKVAVPSFNDRTYYLRQRLRRTSRKISKLAAIKEECDKAAHRGAQRIALAGCGGLIGYWYIVYRLTFETDLGWDVMEPVTYLVGLSTLIGGYMWFLWHNREVSYRSALNITVSARQNKLYQAKGFSLQDWEGYLEEANAMRREIKAVASEYDVDWNETQDEGGDEKVTKALRDERKNNNGTKNKSKEGEEDDEDD
# Key:
# cryo-EM structure [1] = target: the molecule itself; assay: cryo-EM structure
# cryo-EM structure [2] = target: the molecule itself; assay: cryo-EM structure; remark: listed apart in the source
Protein,stoichiometry N (cryo-EM structure [1]),stoichiometry N (cryo-EM structure [2])
B1,4,–
B2,–,4
